Assay: yeast display, Sf9 membrane polyspecificity reagent, FACS + sequencing; frameworks hold sequencing errors
Summary of the method: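 A synthetic nanobody library was expressed on Saccharomyces cerevisiae BJ5465 by galactose induction for 36–48 hours. The library was stained for 1 hour at 4 °C with 10% biotinylated, detergent-solubilized Sf9 membrane reagent and enriched with streptavidin microbeads before FACS. Low and high (top ~1%) gates were set on anti-HA fluorescence for expression and streptavidin fluorescence for reagent binding, and each polyreactivity label reflects the gate of origin.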

Sequence	polyreactivity (PSR sort gate)
QVQLVESGGGLVQAGASLRLSCAASGRTFGGYAMGWYRQAPGKERQLVAAISSSGTGTSYADSVKGRFTISRDNAKNTVYFEMNSLKPEDTAVYYCAARSSRTVLSIQDDDYWGQGTQVTVSS	low polyreactivity
QVQLVESGGGLVQAGGILRLSCAASGLIFTYYAMGWYRQAPWKERELLAAINYSGGSTYYADSVKGRFTISRDNAKNTVYLQMNSLKPEDTAVYYCNAGYGEHPLSGYEYWGQSTQVTVSS	low polyreactivity
QVQLVESGGGLVQAGGSLRLSCAASGRTYVFYVMGWYRQAPGKERELVASISRSGGSTYYADSVKGRFTISRDNAKNTVYLQMNSLKPEDTAVYYCAADQLYYGERDYIWGYYYWGQGTQVTVSS	low polyreactivity
QVQLVESGGGLVQAGGSLRLSCAASGSILGSYAMGWYRQAPGKERELVAAINYSGGSTYYADSVKGRFTISRDNAKNTVYLQMNSLKPEETAVYYCAAVATAGYSNYKLDYWGQGTQVTVSS	low polyreactivity
QVQLVESGGGLVQAGGSLRLSCAASGRTFYSYTMGWYRQAPGKERELVAAINRGGSTYYADSVKWRFTISRDNAKNTVYLQMNSLKPEDTAVYYCNADNWVYLYDYWGQGTQVTVSS	low polyreactivity
QVQLVESGGGLVQAGGSLRLSCAASGRIFGYNAMGRYRQAPGKERELVAAISSGASTIYADSVKGRFTISRDNAKNTVYLQMNSLKPEDTAVYYCAKEKVISPYPYSYYKSDYWGQGTQVTVSS	high polyreactivity
QVQLVESGGGLVQAGGSLRLSCAASGRIFSRYAMGWYRQAPGKERELVAGITRSGTTTYYADSVKGRFTISRDNAKNTVYLQMNSLKPEDTAVYYCAAPPIRPNLYDYWGQGTQVTVSS	high polyreactivity
QVQLVESGGGLVQAGGSLRLSCAASGFTFDIYAMGWYRQAPGKERELVATISRSGGTTYYADSVKGRFTISRDNAKNTVYLQMNSLKPEDTAVYYCAAGAYSYRYRYRMDYWGQGTQVTVSS	high polyreactivity
QVQLVESGGGLVQAGGRLSLSCAASGFIFDYYSMGWYRQAPGKERELVAAISWSGGSTYYADSVKGRFTISRDNAKNTVYLQMNSLKPEDTAVYYCNTYYQGYWGDFDYWGQGTQVTVSS	high polyreactivity
QVQLVESGGGLVQAGGSLRLSCAASGRIFGIYAMGWYRQAPRKERELVASITDGTITNYADSVKGRFTISRDNAKNTVYLQMNSLKPEDTAVYYCAAGTQAHAYVVRPIEMDYWGQGTQVTVSS	low polyreactivity
QVQLVESGGGLVQAGGSLRLSCAASGIIYYGYAMGWYRQAPGKERELVAAISRSGGSTYYADSVKGRFTISRDNAKNTVYLQMNSLKPEDTAVYYCAASGVTYDYWGQGTQVTVSS	high polyreactivity
QVQLVESGGGLVQAGGSLRLSCAASGRIFKNNAMGWYRQAPGKERELVAGISRSGGRTYYADSVKGRFTISRDNAKNTVYLQMNSLKPEDTAVYYCNAYAYYSHGVTTTYDYWGQGTQVTVSS	high polyreactivity
QVQLVESGGGLVQAGGSLRLSCAASGFIFAYNAMGWYRQAPGKEREFVAAINSGGDSTYYADSVKGRFTISRDYANNTVYLQMNSLKPEDTAVYSCAAVIGNKRYYYWGQGTQVTVSS	low polyreactivity
QVQLVESAGALVQAGGSLRLSCAASGRIFSVYAMGWYRQAPGKERELVATITYNGGSTYYADSVKGRFTISRDNAKNTVYLQMNSLKPEDTAVYYCAADWTYVRFDYWGQGTQVTVSS	low polyreactivity
QVQLVESGGGLVQAGGSLRLSCAASGFTFKTNARGWYRQAPVTERELVAAITGSGSSTYYADSVKGRFTISRDNAKNTVYLQMNSLKPEDTAVYYCAASRVYKYYWGQGTEVTVSS	high polyreactivity
QVQLVESGGGLVQAGGSLRLSCAASGRIFGYYAMGWYRQAPGKERELVAAITGSGGRTYYADSVKGRFTISRDNAKNTVYLQMNSLKPEDTAVYYCARQQYRWERVYGYGYCGQGTQVTVSS	high polyreactivity
QVQLLESGGGLVQPGGSLRLSCAASGSTFYDYAMGWYRTAPGKEREFVADIYSNGGSTYYAHSVKGRFTISRDNANYTVYLQMNSLKPEDTAVYYCASVLRPRQGRRYDYWGQGTQVTVSS	low polyreactivity
QVQLVEAGGGLVQAGGSLRLSCADCVSTGVNTMGWYRQAPGKERELVDAIRATGGSTYYADSVKGRFTISRDNAKNTVYLQMNSLKPEDTAVYYCAAKWFRLYLRQDRYYYWGQGTQVTVSS	high polyreactivity
QVQLVESGGGLVQAGGSLRLSSAASGSIFYYYSMGWYRQAPGKERELVAAITRSGGSTYYADSVKGLFTISRDNAKNTVYLQMNSQKPEDTAVYYCAKDAHAYRDLDYWGQGTQVTVSS	low polyreactivity
QVQLVESGGGLVQAGGSLRLSCAASGRTFYFNAMGWYRQAPGKERELVAGISGDGSTNYADSVKGRFTISRDNAKNTFYLQMNSLKPEDTAVYYCAKTMGSQSYDFDYWGQGTQVTVSS	low polyreactivity
QVQLVESGGGLVQAGGSLRLSCAASGRTFVDYVMGWYRQAPGKERELVAAISRSGSTYYADSVKGRFTISRDNAKNTVYLQMNSLKPEDTAVYYCAASSVALPWYVSWYVYGYEYWGQGTQVTVSS	low polyreactivity
QVQLVESGGGLVQAGGSLRLSCAASGFIFSYCAKGRYRQAPGKERELVAAISRSGGRTYYADSVKGRYTISRDNAKNTVYLQMNSLKPEDTAVYYCAAPVSLRPIYDYWGQGTQVTVSS	high polyreactivity

Sequence	polyreactivity (PSR sort gate)
QVQLVESGGGLVQAGGSLRLSCAASGRIFYSYAMGWYRQAPGKDRELVAAITRTGGNTYYADSVKGRFTISRDNAKNTVYLQMNSLKPEDTAVYYCNAEYWKEHYPEIYYSWGQGTQVTVSS	low polyreactivity
QVQIVESGGGLVQAGGSLRLSCAASGSIFIFYAMGWYRQAPGKERELVADITSDGASTYYADSVKGRFTISRDNAKNTVYLQMNSLKPEDTAVYYCAADYIDSSAYDYWGQGTQVTVSS	low polyreactivity
QVQLVESGGGLVQAGGSLRLSCAASGSIIAGYAMGWYRQAPGKERELVAAISQRGTSTYYADSVKGRFTISRDIAKNTVYLQMNSLKPEDTSVYYCAARVVSRMDYWGQGTQVTVSS	high polyreactivity
QVQLVESGGGLVQAGGSLRLSCAASGRTFVKNAMGWYRQAPGKERELVAAIDRGSRTNYADSVKGRFTISRDNAKNTVYLQMNSLKPEDTAVYYCATRYRVRDDQTGTWSIFGYWGQGTQVTVSS	high polyreactivity
QVQLLESGGGLVQAGGSLRLSCAASGFTITRYAMGWYRQAPGKERELVAAITYRGGSTYYADSVKGRFTISRDNAKITVYLQMNSLKPEDTAVYYCAADALYYFSWYYYWGQGTQVTVSS	high polyreactivity
QVQLVESGGGLVQAGGSHRLSCAASGSTLSVNAMGWYRQAPGKERELGAAIDFDGGDTYYADSVKGRFTLSRDNAKNTVYLQMNSLKPEDTAVYSCNAALRWKYDWVQGTQVTVSS	low polyreactivity
QVQLVESGGGLVQAGGSLRLSFAASGLIGRYAMGWYRQAPGKERELVAVITSGDSTYYADSVKGRFTISRDNAKNTVYLQMNSLKQEDTAVYYCAADSYRRWGNLFTGNEYDSWGQGTQVTVSS	low polyreactivity
QVQLVESGGGLVQAGGSLRLSCADSGSIVLVNAMGWSRQAPGKEREMVAAITYGGDSTYYADSVKGRFTISRDNAKNSVYFQINSLKREDTAVYYFAADAWVGWHDEYDYWGQGTQVTVSS	low polyreactivity
QVQLVESGGGLVQAGCSLRLSCAASGRIFGGYAMGWYRQAPGKERELVAAISSGGNTKYADSVKGRFTISRDNAKNTVYLQMNSLKPEDSAVYYCAAKFAQPDYRYDYWGQGTQVSVSS	high polyreactivity
QVQLVESGGGLVQAGGSLRLSCAASGRIFLGNVMGWYRQAPGKERELVAAISKSGGTTYYADSVKGRFTISRDNAKNTVYLQMNSLKPEDTAVYYCAAYGSWRTYHYYYWGQGTQVTVSS	high polyreactivity
QVQLVESGGGLVQAGGSLRLSCAASGSTFGVNAMGWYRQAPGKERELVAAIRSAVPTYYADSVKGRFTISRDNAKNTVYLQMNSLKPEDTAVYYCAKRWSAKYGFYYWGQGTQVTVSS	high polyreactivity
QVQLVESGGGLVQAGGSLRLSCAASGSTFAQNAMGWYRQEPGKERELVAAISRRGGSTYYADSVKGRFTISRDNAKNTVYLQMISLKPEDTAVYYCAADQPVRQLHRDDYWGQGTQVTVSS	low polyreactivity
QVQLVESGGGLDQAGGSLRLSCAASGRIFGYYVMGWYRQAPGKEREFVAAISRSGGSTYYADSVKGRFTISRDNAKTTVYLQMNSLKPEDTAVYYCAKRVSTYGFSGYDYWGQGTQVTVSS	high polyreactivity
QVHLVESGGGLVQAGGSLRLSCAASGSTFGYYDMGWYRQAPGKERELVATISSGGGTNYADSVKGRFTISRDNAKNTVYLQMNSLKPEDTAVYYCAVTYGSKKARYSIYPRYGYWGQGTQVTVSS	low polyreactivity
QVQLVESGGGLVQAGGSLRLICAASGLTFSRYAMGWYRQAPGKERELVAAITWSGSSTYYADSVKGRFTISRDKAKNTVYLQMNSLKPEDTAVYYCAARYGYSRGPYYRSDYWGQGTQVTVSS	high polyreactivity
QVQRVESGGGLVQAGGSLRLSCAASGRIFYPNAMGWYRQAPGTEREWVAGITRGGSTNYADSVKGRFTISRDNAKNTVYLQMNSLKPDDSAVDYCAKAIPAKIYSEAGSDYWGQGTQVTVSS	low polyreactivity
QVQLVESAGGLVQAGGSLRLSCAASGRTFPGNAMGWYRQAPGKERELVATISSGGTTNYADSVKGRFTISRDNAKTTVYLQMNSLKPEDTAVYYCATDTYHHKADYEYWGQGTQVTVSS	low polyreactivity
QVQLVESGGGLVQAGGSLRLSCAASGRTFRYNAMGWYRQAPGKERELVASITSGGSTNYADSVKGRFTISRDNAKNTVYLQMNSLIPEDTAVYYCAADERRPYWQHSIGSGRPFDYWGQGTQVTVSS	low polyreactivity
QVQLVESGGGFVPAGGSLRLSCAASGSTFIPYAMGWYRQAPGKERELVAAISSGGRTYYADSVKGRFTISRDNAKNTVYLQMNSVKPEDTAGYYCASTTSPSSARYYYWGQGTQVTVSS	high polyreactivity
QVQLVESGGGFVQAGGSLLVSCAASGFTFRYSAMGWYRQAPGKERELVAAIDQNSGRTYYADSGKGRFTISRDNAKNTVYLQMNSLKPEDTAVYYCNVGYPKVPAGSYDYWGQGTQVTVSS	high polyreactivity
QVQLVESGGGLVQAGGSLRLSCAASGRTFNINAMGWYRPAPGKERELVASISWGGGRTYSADSVKGRFTISRDNAKNTVYLQKNSLKPEDPAVYYCAADYAGNKGVPYYYKYNYWGQGTQVTVSS	high polyreactivity
